Measurements: patent US20260308536A1, “NOVEL URICASE VARIANTS AND METHODS OF USE THEREOF” (priority 2023, published 2026)

Assays:
[1] = substrate: O=c1[nH]c(=O)c2[nH]c(=O)[nH]c2[nH]1; experiment: purified protein, by the assay type; type: biochemical, chimeric pig-baboon; conditions: other: role: substrate
Protocol: Variants 1 (dURC1) and 3 (dURC3) were identified as possible lead candidates. Besides the mutations according to the library design, i.e., the designed mutations of F75Q; K79N; T83Q; E90H; F96H; I100E; Y105D; V119K; F172Y; L260N; and I262T, dURC3 comprised an off-position amino acid mutation K76N. An off-position amino acid mutation is defined as having a non-designed amino acid at a non-target site. […] Specifically, in the dURC1 backbone, the following mutations were tested separately: L154T; K155D; K155N; L157H; L157T; T159E; T159Q; and S162D; and in the dURC3 backbone, the K155N mutation was tested. […] The characteristics, including yield, activity, melting temperature measured by DSF, temperature at which 50% of normal activity was lost after heating measured by heat stress activity assay, Michaelis-Menten kinetics parameters, of variants 1, 2, 3, and 4 (i.e., dURC1, dURC2, dURC3 and dURC4), as well as the wild type chimeric pig-baboon uricase, are summarized in Table 2. The amino acid sequences of dURC1, dURC2, dURC3 and dURC4 are shown as SEQ ID NO: 1, 2, 3, and 4, respectively.
(§1) The activity of the purified enzymes was quantified by Michaelis Menten kinetic analysis, using the solution phase microplate assay across a range of substrate concentrations (FIG. 4B).

[2] = substrate: O=c1[nH]c(=O)c2[nH]c(=O)[nH]c2[nH]1; experiment: purified protein, by the assay type; type: biochemical, chimeric pig-baboon; conditions: other: role: substrate; remark: listed apart in the source
[3] = substrate: O=c1[nH]c(=O)c2[nH]c(=O)[nH]c2[nH]1; experiment: purified protein, by the assay type; type: biochemical, chimeric pig-baboon; conditions: other: role: substrate; remark: listed apart in the source
Description: The monomeric form of the wild type chimeric pig-baboon uricase comprises the amino acid sequence of SEQ ID NO:5, where threonine is residue #1. The specified mutations in the chimeric pig-baboon uricase variants of this example are indexed to threonine as residue #1, as in SEQ ID NO:5. […] The expression vector pET-26b(+) encodes a His tag containing 6 histidine residues at the C-terminus of the inserted uricase gene.
as §1

[4] = substrate: O=c1[nH]c(=O)c2[nH]c(=O)[nH]c2[nH]1; experiment: Michaelis-Menten kinetics, MedU_5E9; type: biochemical, Arthrobacter globiformis; conditions: other: role: substrate; non-PEGylated; Table 8B; pH 10.5
Protocol: (§2) Select Arthrobacter globiformis uricase variants MedU_1B7, MedU_5B8, MedU_1C2, MedU_5C9, MedU_5E6, MedU_5E9, and MedU_IF1 were subject to further characterization by comparing their expression yields, Michaelis-Menten kinetics parameters, and thermostability measured by temperatures at which 50% of normal activity was lost determined by heat stress activity assay, with those of the wild type Arthrobacter globiformis uricase. The expression yields were determined as described above in the “Methods” section. The Michaelis-Menten kinetics parameters kcat and KM, and temperatures at which 50% of normal activity was lost (i.e., 50% thermal inactivation temperatures, referred to as TI50 (° C.)) measured by heat stress activity assay were likewise determined using the methods described in Example 1.

[5] = substrate: O=c1[nH]c(=O)c2[nH]c(=O)[nH]c2[nH]1; experiment: Michaelis-Menten kinetics, wild type Arthrobacter globiformis uricase; type: biochemical; conditions: other: role: substrate; non-PEGylated; Table 8B; pH 10.5
Description: Non-PEGylated deimmunized Arthrobacter globiformis uricase variants were created by introducing additional amino acid substitutions into the R49S variant Arthrobacter globiformis uricase of SEQ ID NO:6 disclosed in Nyborg et al., PLOS One, 2016, DOI: 10.1371/journal.pone.0167935. For ease of description, the R49S variant Arthrobacter globiformis uricase of SEQ ID NO:6 is referred to as the wild type Arthrobacter globiformis uricase herein, as it serves as the enzyme being mutated to arrive at the variants. The monomeric form of the wild type Arthrobacter globiformis uricase comprises the amino acid sequence of SEQ ID NO:6, where methionine is residue #1. The specified mutations in the Arthrobacter globiformis uricase variants of this example are indexed to methionine as residue #1, as in SEQ ID NO:6. […]
Select Arthrobacter globiformis uricase variants MedU_1B7, MedU_5B8, MedU_1C2, MedU_5C9, MedU_5E6, MedU_5E9, and MedU_IF1 were subject to further characterization by comparing their expression yields, Michaelis-Menten kinetics parameters, and thermostability measured by temperatures at which 50% of normal activity was lost determined by heat stress activity assay, with those of the wild type Arthrobacter globiformis uricase. The expression yields were determined as described above in the “Methods” section. […]

[6] = substrate: O=c1[nH]c(=O)c2[nH]c(=O)[nH]c2[nH]1; experiment: Michaelis-Menten kinetics, MedU_1F1; type: biochemical, Arthrobacter globiformis; conditions: other: role: substrate; non-PEGylated; Table 8B; pH 10.5
Protocol: as §2

[7] = substrate: O=c1[nH]c(=O)c2[nH]c(=O)[nH]c2[nH]1; experiment: Michaelis-Menten kinetics, MedU_5B8; type: biochemical, Arthrobacter globiformis; conditions: other: role: substrate; non-PEGylated; Table 8B; pH 10.5
Protocol: as §2

[8] = substrate: O=c1[nH]c(=O)c2[nH]c(=O)[nH]c2[nH]1; experiment: Michaelis-Menten kinetics, MedU_5C9; type: biochemical, Arthrobacter globiformis; conditions: other: role: substrate; non-PEGylated; Table 8B; pH 10.5
Protocol: as §2

[9] = non-PEGylated, pH 10.5, 25° C., Table 2
[10] = purified enzyme, non-linear regression, Table 3, pH 10.5, 25.0 °C

B1: chimeric pig-baboon uricase variant 1 (dURC1), F75Q/K79E/T83Q/E90H/F96H/I100H/Y105D/V119K/Y127H/F172Y/L260N, SEQ ID NO: 1 (Sus scrofa; … (protein)
chain: TYKKNDEVEFVRTGYGKDMIKVLHIQRDGKYHSIKEVATTVQLTLSSKKDYLHGDNSDVIPTDTIKNTVNVLAKQKGIESIEQFAVTICHHFLSSHKHVHRAQVDVEEVPWKRFEKNGKKHVHAFIHTPTGTHFCEVEQIRNGPPVIHSGIKDLKVLKTTQSGFEGFIKDQYTTLPEVKDRCFATQVYCKWRYHQGRDVDFEATWDTVRSIVLQKFAGPYDKGEYSPSVQKTLYDIQVLTLGQVPEIEDMEISLPNIHYNNIDMSKMGLINKEEVLLPLDNPYGKITGTVKRKLSSRL
notes: purified
Km [1, 9]: 678 µM | Km [1, 10]: 700 ± 100 µM

B2: chimeric pig-baboon uricase variant 2 (dURC2), F75Q/K79E/T83Q/E90H/F96H/I100H/Y105D/V119K/Y127H/K155N/F172Y/L260N, SEQ ID NO: 2 (Sus scrofa; … (protein)
chain: TYKKNDEVEFVRTGYGKDMIKVLHIQRDGKYHSIKEVATTVQLTLSSKKDYLHGDNSDVIPTDTIKNTVNVLAKQKGIESIEQFAVTICHHFLSSHKHVHRAQVDVEEVPWKRFEKNGKKHVHAFIHTPTGTHFCEVEQIRNGPPVIHSGIKDLNVLKTTQSGFEGFIKDQYTTLPEVKDRCFATQVYCKWRYHQGRDVDFEATWDTVRSIVLQKFAGPYDKGEYSPSVQKTLYDIQVLTLGQVPEIEDMEISLPNIHYNNIDMSKMGLINKEEVLLPLDNPYGKITGTVKRKLSSRL
notes: purified
Km [1, 9]: 467 µM | Km [1, 10]: 470 ± 60 µM

B3: chimeric pig-baboon uricase variant 4 (dURC4), F75Q/K76N/K79N/T83Q/E90H/F96H/I100E/Y105D/V119K/K155N/F172Y/L260N/I262T, SEQ ID NO: 4 (Sus scrofa; … (protein)
chain: TYKKNDEVEFVRTGYGKDMIKVLHIQRDGKYHSIKEVATTVQLTLSSKKDYLHGDNSDVIPTDTIKNTVNVLAKQNGINSIEQFAVTICHHFLSSHKHVERAQVDVEEVPWKRFEKNGKKHVHAFIYTPTGTHFCEVEQIRNGPPVIHSGIKDLNVLKTTQSGFEGFIKDQYTTLPEVKDRCFATQVYCKWRYHQGRDVDFEATWDTVRSIVLQKFAGPYDKGEYSPSVQKTLYDIQVLTLGQVPEIEDMEISLPNIHYNNTDMSKMGLINKEEVLLPLDNPYGKITGTVKRKLSSRL
notes: purified
Km [1, 9]: 347 µM | Km [1, 10]: 350 ± 20 µM

B4: chimeric pig-baboon uricase variant 3 (dURC3), F75Q/K76N/K79N/T83Q/E90H/F96H/I100E/Y105D/V119K/F172Y/L260N/I262T, SEQ ID NO: 3 (Sus scrofa; … (protein)
chain: TYKKNDEVEFVRTGYGKDMIKVLHIQRDGKYHSIKEVATTVQLTLSSKKDYLHGDNSDVIPTDTIKNTVNVLAKQNGINSIEQFAVTICHHFLSSHKHVERAQVDVEEVPWKRFEKNGKKHVHAFIYTPTGTHFCEVEQIRNGPPVIHSGIKDLKVLKTTQSGFEGFIKDQYTTLPEVKDRCFATQVYCKWRYHQGRDVDFEATWDTVRSIVLQKFAGPYDKGEYSPSVQKTLYDIQVLTLGQVPEIEDMEISLPNIHYNNTDMSKMGLINKEEVLLPLDNPYGKITGTVKRKLSSRL
notes: purified
Km [2, 9]: 595 µM | Km [2, 10]: 600 ± 70 µM

B5: chimeric pig-baboon uricase, wild type, SEQ ID NO: 5 (Sus scrofa; R291K/S46T/T301S) (protein)
chain: TYKKNDEVEFVRTGYGKDMIKVLHIQRDGKYHSIKEVATTVQLTLSSKKDYLHGDNSDVIPTDTIKNTVNVLAKFKGIKSIETFAVTICEHFLSSFKHVIRAQVYVEEVPWKRFEKNGVKHVHAFIYTPTGTHFCEVEQIRNGPPVIHSGIKDLKVLKTTQSGFEGFIKDQFTTLPEVKDRCFATQVYCKWRYHQGRDVDFEATWDTVRSIVLQKFAGPYDKGEYSPSVQKTLYDIQVLTLGQVPEIEDMEISLPNIHYLNIDMSKMGLINKEEVLLPLDNPYGKITGTVKRKLSSRL
notes: His6 (C); made in house; host or cells: E. coli
Km [3, 9]: 397 µM | Km [3, 10]: 400 ± 50 µM

B6: Arthrobacter globiformis uricase variant MedU_5E9, N33E/A35D/A83G/A145T/A148S/V195D/A204D/A213G/L220K/K244S/Y270H, SEQ ID NO: 164 (Arthrobacter globiformis; … (protein)
chain: MTATAETSTGTKVVLGQNQYGKAEVRLVKVTRETDRHEIQDLNVTSQLSGDFEAAHTAGDNAHVVATDTQKNTVYAFARDGFGTTEEFLLRLGKHFTEGFDWVTGGRWAAQQFFWDRINDHDHAFSRNKSEVRTAVLEISGSEQTIVSGIEGLTVLKSTGSEFHGFPRDKYTTLQETTDRILATDVSARWRYNTDEVDFDAVYDSVRGLLLKGFAETHSKALQQTMYEMGRAVIETHPEIDEISMSLPNKHHFLVDLQPFGQDNPNEVFHAADRPYGLIEATIQREGSRAD
notes: R49S backbone, 291 aa; pET-26b(+), C-terminal His6, E. coli; non-PEGylated
Km [4]: 800 ± 100 µM | kcat [4]: 6.0 ± 0.4 s⁻¹

B7: Arthrobacter globiformis uricase, wild type (R49S variant, referred to as wild type), SEQ ID NO: 6 (Arthrobacter globiformis; R49S) (protein)
chain: MTATAETSTGTKVVLGQNQYGKAEVRLVKVTRNTARHEIQDLNVTSQLSGDFEAAHTAGDNAHVVATDTQKNTVYAFARDGFATTEEFLLRLGKHFTEGFDWVTGGRWAAQQFFWDRINDHDHAFSRNKSEVRTAVLEISGSEQAIVAGIEGLTVLKSTGSEFHGFPRDKYTTLQETTDRILATDVSARWRYNTVEVDFDAVYASVRGLLLKAFAETHSLALQQTMYEMGRAVIETHPEIDEIKMSLPNKHHFLVDLQPFGQDNPNEVFYAADRPYGLIEATIQREGSRAD
notes: as for B5
Km [5]: 270 ± 80 µM | kcat [5]: 2.3 ± 0.2 s⁻¹

B8: Arthrobacter globiformis uricase variant MedU_1F1, A35D/A83G/L89G/V195E/Y203H/A204E/A213G/L220H/I243V/K244S/K250N, SEQ ID NO: 95 (Arthrobacter globiformis; … (protein)
chain: MTATAETSTGTKVVLGQNQYGKAEVRLVKVTRNTDRHEIQDLNVTSQLSGDFEAAHTAGDNAHVVATDTQKNTVYAFARDGFGTTEEFGLRLGKHFTEGFDWVTGGRWAAQQFFWDRINDHDHAFSRNKSEVRTAVLEISGSEQAIVAGIEGLTVLKSTGSEFHGFPRDKYTTLQETTDRILATDVSARWRYNTEEVDFDAVHESVRGLLLKGFAETHSHALQQTMYEMGRAVIETHPEIDEVSMSLPNNHHFLVDLQPFGQDNPNEVFYAADRPYGLIEATIQREGSRAD
notes: as for B6
Km [6]: 370 ± 60 µM | kcat [6]: 2.5 ± 0.1 s⁻¹

B9: Arthrobacter globiformis uricase variant MedU_5B8, A35D/A83G/A145T/A148S/V195E/A204D/A213G/L220H/I243V/K244S, SEQ ID NO: 134 (Arthrobacter globiformis; … (protein)
chain: MTATAETSTGTKVVLGQNQYGKAEVRLVKVTRNTDRHEIQDLNVTSQLSGDFEAAHTAGDNAHVVATDTQKNTVYAFARDGFGTTEEFLLRLGKHFTEGFDWVTGGRWAAQQFFWDRINDHDHAFSRNKSEVRTAVLEISGSEQTIVSGIEGLTVLKSTGSEFHGFPRDKYTTLQETTDRILATDVSARWRYNTEEVDFDAVYDSVRGLLLKGFAETHSHALQQTMYEMGRAVIETHPEIDEVSMSLPNKHHFLVDLQPFGQDNPNEVFYAADRPYGLIEATIQREGSRAD
notes: as for B6
Km [7]: 390 ± 80 µM | kcat [7]: 3.9 ± 0.2 s⁻¹

B10: Arthrobacter globiformis uricase variant MedU_5C9, A35D/A145H/A148S/V195D/A204D/A213G/K244S/K250N, SEQ ID NO: 144 (Arthrobacter globiformis; … (protein)
chain: MTATAETSTGTKVVLGQNQYGKAEVRLVKVTRNTDRHEIQDLNVTSQLSGDFEAAHTAGDNAHVVATDTQKNTVYAFARDGFATTEEFLLRLGKHFTEGFDWVTGGRWAAQQFFWDRINDHDHAFSRNKSEVRTAVLEISGSEQHIVSGIEGLTVLKSTGSEFHGFPRDKYTTLQETTDRILATDVSARWRYNTDEVDFDAVYDSVRGLLLKGFAETHSLALQQTMYEMGRAVIETHPEIDEISMSLPNNHHFLVDLQPFGQDNPNEVFYAADRPYGLIEATIQREGSRAD
notes: as for B6
Km [8]: 340 ± 80 µM | kcat [8]: 2.4 ± 0.1 s⁻¹
